Test results taken from doi:10.1101/677500.

Assays:
[1] = target: GST-EhPKDL (Entamoeba histolytica Protein kinase D like kinase, recombinant) (Entamoeba histolytica); experiment: SEC
[2] = target: EhPKDL-FITC (Entamoeba histolytica); experiment: other fluorescence titration

| stoichiometry N [1] | stoichiometry N [2] [molar ratio] | Substance |
| --- | --- | --- |
| 2 |  | GST-EhPKDL (Entamoeba histolytica Protein kinase D like kinase, recombinant) (enzyme) |
|  | 1 | actin-TRITC (natural protein) |
